Among the data in patent US20240141072A1 (published 2024) are Kd values, retold here.

Common to all, as to experiment: Octet BLI; biotinylated huDLL3-IgG1 fusion on streptavidin tips; single 50 nM trispecific, conditioned medium
The target of assay [1] is T1, anti-DLL3 trispecific protein with DLL3 binding domain 53B06.
T1 construct: trispecific, one chain
Here is the method: (§1) Using the conditioned medium with known concentrations of the anti-DLL3 trispecific proteins, the relative binding affinities of the anti-DLL3 trispecific proteins toward human DLL3 protein were measured using a method where biotinylated version of human DLL3 protein were expressed as a human IgG1 fusion protein, and the binding affinity measurement was carried out in an Octet instrument with streptavidin tips.

The target in assay [2] is T2, anti-DLL3 trispecific protein with DLL3 binding domain 52D04.
T2 construct: trispecific, one chain; same domain order as the TAC protein m79; also called 52D4
The protocol:
as §1

Assay [3] addresses T3, anti-DLL3 trispecific protein with DLL3 binding domain 41C02.
T3 construct: trispecific, one chain
The protocol:
as §1

Assay [4] has as its target T4, anti-DLL3 trispecific protein with DLL3 binding domain 51F01.
T4 construct: trispecific, one chain
The protocol: as §1

Assay [5] has as its target T5, anti-DLL3 trispecific protein with DLL3 binding domain 51E05.
T5 construct: trispecific, one chain
Here is the method:
as §1

The target of assay [6] is T6, anti-DLL3 trispecific protein with DLL3 binding domain 51A01.
T6 construct: trispecific, one chain
Here is the method: as §1

Assay [7] has as its target T7, anti-DLL3 trispecific protein with DLL3 binding domain 42F01.
T7 construct: trispecific, one chain
The protocol: as §1

For assay [8], the target named is T8, anti-DLL3 trispecific protein with DLL3 binding domain 42C08.
T8 construct: trispecific, one chain
The protocol:
as §1

For assay [9], the target named is T9, anti-DLL3 trispecific protein with DLL3 binding domain 51D01.
T9 construct: trispecific, one chain
Here is the method: as §1

Assay [10] deals with T10, anti-DLL3 trispecific protein with DLL3 binding domain 41F07.
T10 construct: trispecific, one chain
Here is the method: as §1

For assay [11], the target named is T11, anti-DLL3 trispecific protein with DLL3 binding domain 51E02.
T11 construct: trispecific, one chain
The protocol:
as §1

Assay [12] deals with T12, anti-DLL3 trispecific protein with DLL3 binding domain 51B04.
T12 construct: trispecific, one chain
Here is the method: as §1

Assay [13] has as its target T13, anti-DLL3 trispecific protein with DLL3 binding domain 42A06.
T13 construct: trispecific, one chain
Here is the method: as §1

The target of assay [14] is T14, anti-DLL3 trispecific protein with DLL3 binding domain 51D03.
T14 construct: trispecific, one chain
Here is the method:
as §1

The target of assay [15] is T15, anti-DLL3 trispecific protein with DLL3 binding domain 42E05.
T15 construct: trispecific, one chain
The protocol:
as §1

The target of assay [16] is T16, anti-DLL3 trispecific protein with DLL3 binding domain 42C03.
T16 construct: trispecific, one chain
Here is the method: as §1

Assay [17] addresses T17, anti-DLL3 trispecific protein with DLL3 binding domain 51E03.
T17 construct: trispecific, one chain
Here is the method:
as §1

T6 sequence (chain, as listed by the source): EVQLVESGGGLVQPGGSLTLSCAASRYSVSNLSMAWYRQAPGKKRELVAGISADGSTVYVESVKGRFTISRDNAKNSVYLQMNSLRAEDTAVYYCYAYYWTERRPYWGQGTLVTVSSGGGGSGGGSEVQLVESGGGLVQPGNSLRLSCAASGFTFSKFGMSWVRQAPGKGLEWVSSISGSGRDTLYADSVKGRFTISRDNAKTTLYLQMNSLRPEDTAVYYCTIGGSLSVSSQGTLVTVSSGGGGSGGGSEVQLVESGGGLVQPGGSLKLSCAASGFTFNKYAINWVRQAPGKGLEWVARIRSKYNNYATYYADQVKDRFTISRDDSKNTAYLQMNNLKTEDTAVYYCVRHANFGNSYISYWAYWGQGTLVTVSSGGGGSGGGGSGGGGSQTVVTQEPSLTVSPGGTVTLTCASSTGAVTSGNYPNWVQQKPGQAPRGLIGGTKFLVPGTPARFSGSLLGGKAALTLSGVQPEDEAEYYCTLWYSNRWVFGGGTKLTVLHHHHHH
T16 sequence (chain, as listed by the source): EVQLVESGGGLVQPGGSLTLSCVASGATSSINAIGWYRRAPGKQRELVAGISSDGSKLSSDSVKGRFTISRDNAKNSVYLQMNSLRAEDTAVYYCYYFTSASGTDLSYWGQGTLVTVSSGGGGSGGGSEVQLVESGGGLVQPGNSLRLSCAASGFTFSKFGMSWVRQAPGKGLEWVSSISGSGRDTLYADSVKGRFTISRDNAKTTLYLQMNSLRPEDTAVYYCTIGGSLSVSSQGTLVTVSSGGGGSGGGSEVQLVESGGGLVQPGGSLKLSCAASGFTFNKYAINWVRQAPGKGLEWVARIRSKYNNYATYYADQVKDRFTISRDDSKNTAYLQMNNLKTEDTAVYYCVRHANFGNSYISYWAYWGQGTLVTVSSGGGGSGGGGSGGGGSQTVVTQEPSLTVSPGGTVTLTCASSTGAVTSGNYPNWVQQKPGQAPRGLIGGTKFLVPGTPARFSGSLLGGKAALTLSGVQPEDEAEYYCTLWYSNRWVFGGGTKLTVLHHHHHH
T11 sequence (chain, as listed by the source): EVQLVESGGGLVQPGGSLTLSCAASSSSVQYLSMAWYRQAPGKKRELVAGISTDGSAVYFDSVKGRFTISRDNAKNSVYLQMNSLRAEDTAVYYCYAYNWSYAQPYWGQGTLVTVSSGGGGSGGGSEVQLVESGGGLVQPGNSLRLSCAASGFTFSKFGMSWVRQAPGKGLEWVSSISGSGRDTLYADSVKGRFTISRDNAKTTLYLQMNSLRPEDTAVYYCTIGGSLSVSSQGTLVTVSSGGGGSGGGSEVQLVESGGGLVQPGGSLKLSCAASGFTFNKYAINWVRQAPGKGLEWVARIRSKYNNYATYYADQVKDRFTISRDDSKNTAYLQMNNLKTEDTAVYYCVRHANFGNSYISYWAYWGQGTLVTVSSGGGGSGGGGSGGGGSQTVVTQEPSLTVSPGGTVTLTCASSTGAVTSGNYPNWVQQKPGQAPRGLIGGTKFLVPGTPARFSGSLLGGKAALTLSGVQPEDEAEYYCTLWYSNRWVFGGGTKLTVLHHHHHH
T17 sequence (chain, as listed by the source): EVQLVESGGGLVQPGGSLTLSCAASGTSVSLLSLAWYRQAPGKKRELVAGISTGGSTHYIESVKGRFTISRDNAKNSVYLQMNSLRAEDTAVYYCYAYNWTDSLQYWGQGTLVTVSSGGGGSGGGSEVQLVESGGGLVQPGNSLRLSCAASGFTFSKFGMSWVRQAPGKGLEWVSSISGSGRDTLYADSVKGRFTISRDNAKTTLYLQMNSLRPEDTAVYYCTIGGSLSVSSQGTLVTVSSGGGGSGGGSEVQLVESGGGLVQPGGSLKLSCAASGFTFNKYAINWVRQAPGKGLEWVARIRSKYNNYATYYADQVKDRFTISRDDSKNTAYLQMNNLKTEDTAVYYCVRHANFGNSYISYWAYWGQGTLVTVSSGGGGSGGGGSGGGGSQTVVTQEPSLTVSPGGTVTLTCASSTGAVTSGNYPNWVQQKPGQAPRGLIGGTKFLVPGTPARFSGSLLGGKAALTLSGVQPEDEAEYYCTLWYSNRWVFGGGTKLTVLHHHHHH
T9 sequence (chain, as listed by the source): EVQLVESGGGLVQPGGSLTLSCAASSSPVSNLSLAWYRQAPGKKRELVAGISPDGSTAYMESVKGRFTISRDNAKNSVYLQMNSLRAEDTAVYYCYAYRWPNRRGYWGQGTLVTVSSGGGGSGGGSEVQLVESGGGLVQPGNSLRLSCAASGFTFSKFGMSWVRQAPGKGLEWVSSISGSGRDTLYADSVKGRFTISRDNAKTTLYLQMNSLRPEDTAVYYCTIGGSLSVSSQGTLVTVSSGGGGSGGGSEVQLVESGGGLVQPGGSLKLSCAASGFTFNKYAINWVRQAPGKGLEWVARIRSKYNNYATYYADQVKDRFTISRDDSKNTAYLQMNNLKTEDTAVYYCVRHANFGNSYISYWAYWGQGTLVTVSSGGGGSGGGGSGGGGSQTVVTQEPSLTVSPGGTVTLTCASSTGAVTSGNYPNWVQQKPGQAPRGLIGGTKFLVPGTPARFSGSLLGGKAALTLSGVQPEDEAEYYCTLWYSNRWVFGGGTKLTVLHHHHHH
T14 sequence (chain, as listed by the source): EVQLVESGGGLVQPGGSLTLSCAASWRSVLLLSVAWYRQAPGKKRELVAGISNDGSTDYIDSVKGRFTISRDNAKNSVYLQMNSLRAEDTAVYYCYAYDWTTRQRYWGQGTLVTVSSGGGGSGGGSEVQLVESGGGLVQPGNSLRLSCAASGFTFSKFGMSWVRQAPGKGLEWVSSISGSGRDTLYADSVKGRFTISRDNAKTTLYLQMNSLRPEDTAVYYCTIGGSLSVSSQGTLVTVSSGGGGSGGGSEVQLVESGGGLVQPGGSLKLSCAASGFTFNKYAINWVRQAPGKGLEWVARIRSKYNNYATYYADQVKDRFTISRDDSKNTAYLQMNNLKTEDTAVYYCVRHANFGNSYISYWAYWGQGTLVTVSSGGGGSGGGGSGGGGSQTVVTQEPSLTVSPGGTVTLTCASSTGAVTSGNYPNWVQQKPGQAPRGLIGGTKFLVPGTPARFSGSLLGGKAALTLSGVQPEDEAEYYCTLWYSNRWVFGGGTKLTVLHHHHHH
T15 sequence (chain, as listed by the source): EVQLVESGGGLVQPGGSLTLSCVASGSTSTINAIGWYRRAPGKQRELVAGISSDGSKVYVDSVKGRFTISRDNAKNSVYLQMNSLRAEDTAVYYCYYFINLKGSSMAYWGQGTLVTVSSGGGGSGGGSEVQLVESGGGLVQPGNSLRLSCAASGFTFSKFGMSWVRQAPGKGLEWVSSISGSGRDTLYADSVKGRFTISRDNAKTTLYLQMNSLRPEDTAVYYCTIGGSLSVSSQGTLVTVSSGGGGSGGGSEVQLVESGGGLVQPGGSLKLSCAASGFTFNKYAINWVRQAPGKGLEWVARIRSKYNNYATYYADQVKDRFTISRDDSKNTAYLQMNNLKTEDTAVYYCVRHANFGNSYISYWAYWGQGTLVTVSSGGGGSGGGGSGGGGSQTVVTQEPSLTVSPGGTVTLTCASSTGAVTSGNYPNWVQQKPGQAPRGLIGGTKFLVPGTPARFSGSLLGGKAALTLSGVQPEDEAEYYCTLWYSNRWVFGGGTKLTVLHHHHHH
T2 sequence (chain, as listed by the source): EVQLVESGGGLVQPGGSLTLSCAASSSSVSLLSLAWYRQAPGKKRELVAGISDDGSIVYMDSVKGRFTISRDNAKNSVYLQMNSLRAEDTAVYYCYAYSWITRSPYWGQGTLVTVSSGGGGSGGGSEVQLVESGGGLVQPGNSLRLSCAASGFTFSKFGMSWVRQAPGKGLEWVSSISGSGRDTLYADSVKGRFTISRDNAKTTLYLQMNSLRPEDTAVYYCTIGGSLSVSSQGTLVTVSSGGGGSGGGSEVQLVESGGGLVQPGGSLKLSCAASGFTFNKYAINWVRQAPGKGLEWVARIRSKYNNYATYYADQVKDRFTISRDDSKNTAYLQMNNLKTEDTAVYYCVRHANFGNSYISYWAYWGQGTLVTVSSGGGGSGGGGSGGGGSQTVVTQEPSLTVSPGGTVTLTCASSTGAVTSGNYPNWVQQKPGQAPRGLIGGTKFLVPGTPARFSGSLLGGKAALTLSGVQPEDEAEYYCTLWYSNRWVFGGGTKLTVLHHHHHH
T13 sequence (chain, as listed by the source): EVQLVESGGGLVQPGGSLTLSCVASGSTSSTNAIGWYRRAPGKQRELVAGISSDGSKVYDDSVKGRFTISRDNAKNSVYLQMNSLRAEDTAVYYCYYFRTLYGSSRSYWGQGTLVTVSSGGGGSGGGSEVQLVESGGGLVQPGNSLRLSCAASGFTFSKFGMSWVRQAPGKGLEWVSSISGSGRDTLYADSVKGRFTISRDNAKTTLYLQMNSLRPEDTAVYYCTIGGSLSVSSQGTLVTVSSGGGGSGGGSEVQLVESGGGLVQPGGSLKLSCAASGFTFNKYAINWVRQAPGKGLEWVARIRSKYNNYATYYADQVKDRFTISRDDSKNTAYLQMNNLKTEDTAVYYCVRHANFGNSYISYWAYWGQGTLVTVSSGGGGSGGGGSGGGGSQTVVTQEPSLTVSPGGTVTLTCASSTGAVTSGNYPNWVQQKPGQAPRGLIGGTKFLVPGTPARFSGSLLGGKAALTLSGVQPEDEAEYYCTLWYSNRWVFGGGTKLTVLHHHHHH

B1: biotinylated human DLL3 protein expressed as a human IgG1 fusion protein (Fc fusion, not shown: a dimerising Fc or GST)
chain: AGVFELQIHSFGPGPGPGAPRSPCSARLPCRLFFRVCLKPGLSEEAAESPCALGAALSARGPVYTEQPGAPAPDLPLPDGLLQVPFRDAWPGTFSFIIETWREELGDQIGGPAWSLLARVAGRRRLAAGGPWARDIQRAGAWELRFSYRARCEPPAVGTACTRLCRPRSAPSRCGPGLRPCAPLEDECEAPLVCRAGCSPEHGFCEQPGECRCLEGWTGPLCTVPVSTSSCLSPRGPSSATTGCLVPGPGPCDGNPCANGGSCSETPRSFECTCPRGFYGLRCEVSGVTCADGPCFNGGLCVGGADPDSAYICHCPPGFQGSNCEKRVDRCSLQPCRNGGLCLDLGHALRCRCRAGFAGPRCEHDLDDCAGRACANGGTCVEGGGAHRCSCALGFGGRDCRERADPCAARPCAHGGRCYAHFSGLVCACAPGYMGARCEFPVHPDGASALPAAPPGLRPGDPQRYL
modifications: biotinylated
The term Kd denotes the constant that tells how readily two partners part at equilibrium. Higher therefore signals a looser complex. On to B1, for which the dissociation constant Kd was found to be 0.71 nM in assay [1]; 0.5 nM in assay [2]; 2.4 nM in assay [3]; 16 nM in assay [4]; 0.97 nM in assay [5]; 0.92 nM in [6]. The dissociation constant (Kd) stood at 5.5 nM in assay [7]; 1.8 nM in assay [8]; 7.9 nM in assay [9]; 25 nM in assay [10]; 3.5 nM in assay [11]; 16 nM in assay [12]. For the same molecule, the Kd was 1 nM in [13]; 3.3 nM in assay [14]; 1.2 nM in assay [15]; 0.88 nM in assay [16]; 7.2 nM in [17].
